Measurements reported in article doi:10.1101/2025.02.17.638454, “Synergistic RAS-MAPK and AKT Activation in MYC-Driven Tumors via Adjacent PVT1 Rearrangements” (bioRxiv, 2025).

Target: T1, Recombinant KRAS protein (#ab156968, Abcam) (UniProt P01116 1-189)
T1 construct: KRAS, recombinant protein bought from Abcam; source: bought: Abcam (#ab156968), dialyzed into ITC buffer
Experiment: ITC; twenty 6 ul injections (150 s intervals) of 500 uM HNB into the cell with 93 uM KRAS; 20 mM Tris pH 8.0, 100 mM NaCl, 5 mM beta-mercaptoethanol; 25 C; Affinity ITC (TA Instruments)
Details: both partners purified

T1 sequence (P01116 whole entry): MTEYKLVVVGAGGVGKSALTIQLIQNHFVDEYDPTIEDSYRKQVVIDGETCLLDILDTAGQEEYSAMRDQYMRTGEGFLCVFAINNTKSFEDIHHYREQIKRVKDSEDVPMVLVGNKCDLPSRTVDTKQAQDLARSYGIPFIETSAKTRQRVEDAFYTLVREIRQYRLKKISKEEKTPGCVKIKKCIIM

Kd: 364 ± 2 µM
Binder: MKTQLGAVKGFLHV [Honeybadger (HNB) peptide used for ITC]
